Experimental data reported in patent US20230192867A1 (published 2023).

Legend:
huGARP/hLTGF-β complex [1] = target: T1, huGARP/hLTGF-β complex (human, UniProt P01137 30-390); experiment: cell-based or functional assay
huGARP/hLTGF-β complex [2] = target: T1, huGARP/hLTGF-β complex; experiment: flow cytometry on activated primary human Tregs, PE secondary antibody
Experimental: Anti-huGARP antibodies GARP.2, GARP.3, 1H10, 3H5, 22G8 and a hIgG1 isotype control were incubated at 4° C. for 30 minutes with activated Tregs from a healthy donor in a 96 well plate at a starting concentrations of 40 μg/ml followed by serial dilutions. Activated Tregs were prepared from previously isolated and expanded Tregs stimulated for two days with anti-CD3/CD28 activation beads (ThermoFisher, Waltham, Mass., USA) in the presence of 100 units/mL of recombinant human IL-2. An appropriate PE secondary antibody against the primary anti-GARP antibody was applied and washed off after incubation for 15 minutes at 4° C. Samples were processed on a flow cytometer and PE fluorescence intensities analyzed on FLOWJO® flow cytometry system. EC50 calculations were derived using […] PRISM® data analysis software.

T1 sequence (chain, as listed by the source, form in doubt, chain 1 of 2): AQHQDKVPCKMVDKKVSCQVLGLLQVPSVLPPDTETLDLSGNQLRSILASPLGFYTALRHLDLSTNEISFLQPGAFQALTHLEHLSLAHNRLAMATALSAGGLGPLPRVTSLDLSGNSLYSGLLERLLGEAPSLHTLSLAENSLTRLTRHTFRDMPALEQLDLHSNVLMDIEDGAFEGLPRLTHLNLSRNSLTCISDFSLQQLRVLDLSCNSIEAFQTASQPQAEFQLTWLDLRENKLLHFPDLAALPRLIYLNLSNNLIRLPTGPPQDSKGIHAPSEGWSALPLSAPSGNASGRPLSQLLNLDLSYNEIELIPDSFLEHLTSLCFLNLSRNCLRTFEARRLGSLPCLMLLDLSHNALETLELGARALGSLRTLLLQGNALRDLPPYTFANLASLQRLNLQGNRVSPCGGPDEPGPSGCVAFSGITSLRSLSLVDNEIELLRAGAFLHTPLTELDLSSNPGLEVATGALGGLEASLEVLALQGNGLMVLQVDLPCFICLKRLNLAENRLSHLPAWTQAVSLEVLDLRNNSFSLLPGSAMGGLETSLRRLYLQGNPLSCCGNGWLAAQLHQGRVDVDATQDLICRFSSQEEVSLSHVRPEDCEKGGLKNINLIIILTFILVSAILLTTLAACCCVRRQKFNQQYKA
T1 sequence (P01137 30-390, form in doubt, chain 2 of 2): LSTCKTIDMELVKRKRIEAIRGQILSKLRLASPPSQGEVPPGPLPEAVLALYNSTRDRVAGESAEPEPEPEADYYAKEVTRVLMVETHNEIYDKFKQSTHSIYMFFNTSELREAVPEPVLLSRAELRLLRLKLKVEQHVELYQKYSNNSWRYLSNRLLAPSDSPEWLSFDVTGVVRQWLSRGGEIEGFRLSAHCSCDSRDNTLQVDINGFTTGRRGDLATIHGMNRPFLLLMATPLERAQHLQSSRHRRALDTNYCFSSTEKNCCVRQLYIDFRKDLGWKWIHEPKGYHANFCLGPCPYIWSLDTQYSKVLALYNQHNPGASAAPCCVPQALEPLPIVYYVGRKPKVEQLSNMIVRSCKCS

Binder	TGF-β release (ELISA of soluble TGF-β after six hours, 3A9 cells expressing huGARP/latent TGF-β complex on αvβ8 integrin) (huGARP/hLTGF-β complex [1])	EC50 (huGARP/hLTGF-β complex [2])
anti-huGARP mAb 10H7 (antibody, IgG1, V domains shown) VH: QVQLVESGGGVVQPGRSLRLSCAASEFTFSSYGMYWVRQAPGKGLEWVSIIWHDGSKKYYVDSVKGRFTISRDNSKNTLYLQMNSLRGEDTAVYYCAREQWESWYLDLWGRGTLVTVSS VL: not shown	16 fold	
anti-huGARP antibody GARP.2 (antibody, V domains shown, Variant of mAb 10H7 with a human IgG1.1 constant domain in place of the original IgG1; also called 10H7/GARP.2) VH: QVQLVESGGGVVQPGRSLRLSCAASEFTFSSYGMYWVRQAPGKGLEWVSIIWHDGSKKYYVDSVKGRFTISRDNSKNTLYLQMNSLRGEDTAVYYCAREQWESWYLDLWGRGTLVTVSS VL: not shown		610 pM
